Assay results taken from PMC11974935 (bioRxiv, 2025).

Target: the molecule itself
Assay: mass photometry

B1: full-length, wild-type Cdc13 (natural protein, S. cerevisiae, UniProt P32797 1-924, looked up)
chain: MDTLEEPECPPHKNRIFVSSSKDFEGYPSKAIVPVQFVALLTSIHLTETKCLLGFSNFERRGDQSQEDQYLIKLKFKDRGSERLARITISLLCQYFDIELPDLDSDSGASPTVILRDIHLERLCFSSCKALYVSKHGNYTLFLEDIKPLDLVSVISTISTKSTNSSKHSSSELISECDLNNSLVDIFNNLIEMNRDEKNRFKFVKLIHYDIELKKFVQDQQKVLSQKSKAAAINPFFVPNRLGIPYIESQNEFNSQLMTLNVDEPTTDISNMGEEMHDSADPIEDSDSSTTSSTGKYFSSKSYIQSQTPERKTSVPNNWHDDDSGSKRKRKLSFHSPNASSIRKAISYEQLSLASVGSVERLEGKIVGMNPPQFASINEFKYCTLKLYFTQLLPNVPDKVLVPGVNCIEIVIPTRERICELFGVLNCQSDKISDILLLEKPDRISVEVERILWDNDKTASPGMAVWSLKNISTDTQAQAQVQVPAQSSASIDPSRTRMSKMARKDPTIEFCQLGLDTFETKYITMFGMLVSCSFDKPAFISFVFSDFTKNDIVQNYLYDRYLIDYENKLELNEGFKAIMYKNQFETFDSKLRKIFNNGLRDLQNGRDENLSQYGIVCKMNIKVKMYNGKLNAIVRECEPVPHSQISSIASPSQCEHLRLFYQRAFKRIGESAISRYFEEYRRFFPIHRNGSHLAKLRFDEVKHEPKKSPTTPALAEHIPDLNADVSSFDVKFTDISSLLDSSARLPRPQQTHKSNTLYSCEGRIIAIEYHASDLCFHITNELPLLQTRGLAPERVLQLHIITSKNFAYFFNRSSAYLQRQPLEEKYTQLAQFLGHSFKFNITSSLTLFPDTTVALQIWCPIECTFRELQQQLAHPKVAAAPDSGSLDCAINATVNPLRLLAAQNGVTVKKEEDNDDDAGAVPTS
stoichiometry N: 2
